Measured values as given in patent US20260001928A1 (CORTERIA PHARMACEUTICALS, priority 2022, published 2026).
*1 amine or outer side, *2 acyl side, *3 side chain or, on linkers, in order; H or OH if unused. Where no end group is shown, it is not given here. Side-chain parts run from the residue outwards. [ ]: non-standard residue; d: D form. The star is where a group is joined. C18 diacid = O=C(O)CCCCCCCCCCCCCCCCC(=O)*; C16 diacid = O=C(O)CCCCCCCCCCCCCCC(=O)*; γGlu = O=C(O)[C@H](CCC(=O)[*:2])N[*:1]; NMeI = CC[C@H](C)[C@H](NC)C(=O)O; Nva = CCC[C@H](N)C(=O)O; Abu = CC[C@H](N)C(=O)O; AEEA = NCCOCCOCC(=O)O; Aib = CC(C)(N)C(=O)O

T1: CRF1R receptor (UniProt P34998 24-415, limits assumed)
T1 sequence (looked up): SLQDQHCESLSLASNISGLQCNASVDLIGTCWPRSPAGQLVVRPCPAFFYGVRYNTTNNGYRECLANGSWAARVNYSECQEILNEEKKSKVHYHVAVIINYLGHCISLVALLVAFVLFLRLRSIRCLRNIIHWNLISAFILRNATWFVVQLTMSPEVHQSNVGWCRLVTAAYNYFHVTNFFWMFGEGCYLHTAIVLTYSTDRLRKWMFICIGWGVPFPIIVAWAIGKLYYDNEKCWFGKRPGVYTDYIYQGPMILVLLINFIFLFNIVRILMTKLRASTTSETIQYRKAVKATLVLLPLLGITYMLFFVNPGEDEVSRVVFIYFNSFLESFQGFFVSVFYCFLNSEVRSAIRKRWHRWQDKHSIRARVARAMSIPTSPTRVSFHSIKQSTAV


What was measured:
CRF1R receptor = biological target: T1, CRF1R receptor; experiment: cell-based or functional assay
[1] = biological target: human corticotropin-releasing factor 2a (CRF2a receptor) (human), Q13324; experiment: cell-based or functional assay
Sequence of human corticotropin-releasing factor 2a (CRF2a receptor) (human), Q13324 (Q13324 20-411): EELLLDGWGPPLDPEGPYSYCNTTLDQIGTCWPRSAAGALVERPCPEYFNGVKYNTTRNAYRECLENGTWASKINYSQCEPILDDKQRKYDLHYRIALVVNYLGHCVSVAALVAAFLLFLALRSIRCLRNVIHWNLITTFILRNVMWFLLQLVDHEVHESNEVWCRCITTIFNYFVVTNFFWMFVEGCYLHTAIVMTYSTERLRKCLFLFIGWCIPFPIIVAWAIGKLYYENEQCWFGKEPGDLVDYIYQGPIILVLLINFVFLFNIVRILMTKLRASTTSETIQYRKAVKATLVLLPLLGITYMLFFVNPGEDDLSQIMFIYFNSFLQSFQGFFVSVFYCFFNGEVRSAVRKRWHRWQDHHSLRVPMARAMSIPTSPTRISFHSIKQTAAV

Emax (% I) (CRF1R receptor) | EC50 [nM] (cAMP) [1] | EC50 (CRF1R receptor) | Binder
6% | 0.35 nM | – | [NMeI]VLSLD[dV]PIKLK([AEEA-AEEA-γGlu-C18 diacid])KILLEQEKQKKQREQAETNAQILAQV-NH2 (N-terminus assumed; SMILES CC[C@H](C)[C@H](NC)C(=O)N[C@H](C(=O)N[C@@H](CC(C)C)C(=O)N[C@@H](CO)C(=O)N[C@@H](CC(C)C)C(=O)N[C@@H](CC(=O)O)C(=O)N[C@@H](C(=O)N1CCC[C@H]1C(=O)N[C@H](C(=O)N[C@@H](CCCCN)C(=O)N[C@@H](CC(C)C)C(=O)N[C@@H](CCCCNC(=O)COCCOCCNC(=O)COCCOCCNC(=O)CC[C@H](NC(=O)CCCCCCCCCCCCCCCCC(=O)O)C(=O)O)C(=O)N[C@@H](CCCCN)C(=O)N[C@H](C(=O)N[C@@H](CC(C)C)C(=O)N[C@@H](CC(C)C)C(=O)N[C@@H](CCC(=O)O)C(=O)N[C@@H](CCC(N)=O)C(=O)N[C@@H](CCC(=O)O)C(=O)N[C@@H](CCCCN)C(=O)N[C@@H](CCC(N)=O)C(=O)N[C@@H](CCCCN)C(=O)N[C@@H](CCCCN)C(=O)N[C@@H](CCC(N)=O)C(=O)N[C@@H](CCCNC(=N)N)C(=O)N[C@@H](CCC(=O)O)C(=O)N[C@@H](CCC(N)=O)C(=O)N[C@@H](C)C(=O)N[C@@H](CCC(=O)O)C(=O)N[C@H](C(=O)N[C@@H](CC(N)=O)C(=O)N[C@@H](C)C(=O)N[C@@H](CCC(N)=O)C(=O)N[C@H](C(=O)N[C@@H](CC(C)C)C(=O)N[C@@H](C)C(=O)N[C@@H](CCC(N)=O)C(=O)N[C@H](C(N)=O)C(C)C)[C@@H](C)CC)[C@@H](C)O)[C@@H](C)CC)[C@@H](C)CC)C(C)C)C(C)C) [SEQ ID NO 113]
5% | 0.47 nM | – | Ac-IVLSLD[dV]PIKLK([AEEA-AEEA-γGlu-C18 diacid])KILLEQEKQKKQREQAETN[Abu]QILAQV-NH2 (SMILES CC[C@H](NC(=O)[C@H](CC(N)=O)NC(=O)[C@@H](NC(=O)[C@H](CCC(=O)O)NC(=O)[C@H](C)NC(=O)[C@H](CCC(N)=O)NC(=O)[C@H](CCC(=O)O)NC(=O)[C@H](CCCNC(=N)N)NC(=O)[C@H](CCC(N)=O)NC(=O)[C@H](CCCCN)NC(=O)[C@H](CCCCN)NC(=O)[C@H](CCC(N)=O)NC(=O)[C@H](CCCCN)NC(=O)[C@H](CCC(=O)O)NC(=O)[C@H](CCC(N)=O)NC(=O)[C@H](CCC(=O)O)NC(=O)[C@H](CC(C)C)NC(=O)[C@H](CC(C)C)NC(=O)[C@@H](NC(=O)[C@H](CCCCN)NC(=O)[C@H](CCCCNC(=O)COCCOCCNC(=O)COCCOCCNC(=O)CC[C@H](NC(=O)CCCCCCCCCCCCCCCCC(=O)O)C(=O)O)NC(=O)[C@H](CC(C)C)NC(=O)[C@H](CCCCN)NC(=O)[C@@H](NC(=O)[C@@H]1CCCN1C(=O)[C@H](NC(=O)[C@H](CC(=O)O)NC(=O)[C@H](CC(C)C)NC(=O)[C@H](CO)NC(=O)[C@H](CC(C)C)NC(=O)[C@@H](NC(=O)[C@@H](NC(C)=O)[C@@H](C)CC)C(C)C)C(C)C)[C@@H](C)CC)[C@@H](C)CC)[C@@H](C)O)C(=O)N[C@@H](CCC(N)=O)C(=O)N[C@H](C(=O)N[C@@H](CC(C)C)C(=O)N[C@@H](C)C(=O)N[C@@H](CCC(N)=O)C(=O)N[C@H](C(N)=O)C(C)C)[C@@H](C)CC) [SEQ ID NO 104]
8% | 0.41 nM | – | Ac-IVLSLD[dV]PIKLK([AEEA-AEEA-γGlu-C18 diacid])KILLEQEKQKKQREQAETNAQILAQV-NH2 (SMILES CC[C@H](C)[C@H](NC(C)=O)C(=O)N[C@H](C(=O)N[C@@H](CC(C)C)C(=O)N[C@@H](CO)C(=O)N[C@@H](CC(C)C)C(=O)N[C@@H](CC(=O)O)C(=O)N[C@@H](C(=O)N1CCC[C@H]1C(=O)N[C@H](C(=O)N[C@@H](CCCCN)C(=O)N[C@@H](CC(C)C)C(=O)N[C@@H](CCCCNC(=O)COCCOCCNC(=O)COCCOCCNC(=O)CC[C@H](NC(=O)CCCCCCCCCCCCCCCCC(=O)O)C(=O)O)C(=O)N[C@@H](CCCCN)C(=O)N[C@H](C(=O)N[C@@H](CC(C)C)C(=O)N[C@@H](CC(C)C)C(=O)N[C@@H](CCC(=O)O)C(=O)N[C@@H](CCC(N)=O)C(=O)N[C@@H](CCC(=O)O)C(=O)N[C@@H](CCCCN)C(=O)N[C@@H](CCC(N)=O)C(=O)N[C@@H](CCCCN)C(=O)N[C@@H](CCCCN)C(=O)N[C@@H](CCC(N)=O)C(=O)N[C@@H](CCCNC(=N)N)C(=O)N[C@@H](CCC(=O)O)C(=O)N[C@@H](CCC(N)=O)C(=O)N[C@@H](C)C(=O)N[C@@H](CCC(=O)O)C(=O)N[C@H](C(=O)N[C@@H](CC(N)=O)C(=O)N[C@@H](C)C(=O)N[C@@H](CCC(N)=O)C(=O)N[C@H](C(=O)N[C@@H](CC(C)C)C(=O)N[C@@H](C)C(=O)N[C@@H](CCC(N)=O)C(=O)N[C@H](C(N)=O)C(C)C)[C@@H](C)CC)[C@@H](C)O)[C@@H](C)CC)[C@@H](C)CC)C(C)C)C(C)C) [SEQ ID NO 100]
10% | 0.87 nM | – | Ac-IVLSLD[dV]PIKLK([AEEA-AEEA-γGlu-C18 diacid])KILLEQEKQKKQREQAETN[Nva]QILAQV-NH2 (SMILES CCC[C@H](NC(=O)[C@H](CC(N)=O)NC(=O)[C@@H](NC(=O)[C@H](CCC(=O)O)NC(=O)[C@H](C)NC(=O)[C@H](CCC(N)=O)NC(=O)[C@H](CCC(=O)O)NC(=O)[C@H](CCCNC(=N)N)NC(=O)[C@H](CCC(N)=O)NC(=O)[C@H](CCCCN)NC(=O)[C@H](CCCCN)NC(=O)[C@H](CCC(N)=O)NC(=O)[C@H](CCCCN)NC(=O)[C@H](CCC(=O)O)NC(=O)[C@H](CCC(N)=O)NC(=O)[C@H](CCC(=O)O)NC(=O)[C@H](CC(C)C)NC(=O)[C@H](CC(C)C)NC(=O)[C@@H](NC(=O)[C@H](CCCCN)NC(=O)[C@H](CCCCNC(=O)COCCOCCNC(=O)COCCOCCNC(=O)CC[C@H](NC(=O)CCCCCCCCCCCCCCCCC(=O)O)C(=O)O)NC(=O)[C@H](CC(C)C)NC(=O)[C@H](CCCCN)NC(=O)[C@@H](NC(=O)[C@@H]1CCCN1C(=O)[C@H](NC(=O)[C@H](CC(=O)O)NC(=O)[C@H](CC(C)C)NC(=O)[C@H](CO)NC(=O)[C@H](CC(C)C)NC(=O)[C@@H](NC(=O)[C@@H](NC(C)=O)[C@@H](C)CC)C(C)C)C(C)C)[C@@H](C)CC)[C@@H](C)CC)[C@@H](C)O)C(=O)N[C@@H](CCC(N)=O)C(=O)N[C@H](C(=O)N[C@@H](CC(C)C)C(=O)N[C@@H](C)C(=O)N[C@@H](CCC(N)=O)C(=O)N[C@H](C(N)=O)C(C)C)[C@@H](C)CC) [SEQ ID NO 105]
63% | 0.07 nM | 95.4 nM | Ac-IVLSLD[dV]PIKLK([γGlu-C16 diacid])QILLKQERQKKQREQAEKNKQILEQV-NH2 (SMILES CC[C@H](C)[C@H](NC(C)=O)C(=O)N[C@H](C(=O)N[C@@H](CC(C)C)C(=O)N[C@@H](CO)C(=O)N[C@@H](CC(C)C)C(=O)N[C@@H](CC(=O)O)C(=O)N[C@@H](C(=O)N1CCC[C@H]1C(=O)N[C@H](C(=O)N[C@@H](CCCCN)C(=O)N[C@@H](CC(C)C)C(=O)N[C@@H](CCCCNC(=O)CC[C@H](NC(=O)CCCCCCCCCCCCCCC(=O)O)C(=O)O)C(=O)N[C@@H](CCC(N)=O)C(=O)N[C@H](C(=O)N[C@@H](CC(C)C)C(=O)N[C@@H](CC(C)C)C(=O)N[C@@H](CCCCN)C(=O)N[C@@H](CCC(N)=O)C(=O)N[C@@H](CCC(=O)O)C(=O)N[C@@H](CCCNC(=N)N)C(=O)N[C@@H](CCC(N)=O)C(=O)N[C@@H](CCCCN)C(=O)N[C@@H](CCCCN)C(=O)N[C@@H](CCC(N)=O)C(=O)N[C@@H](CCCNC(=N)N)C(=O)N[C@@H](CCC(=O)O)C(=O)N[C@@H](CCC(N)=O)C(=O)N[C@@H](C)C(=O)N[C@@H](CCC(=O)O)C(=O)N[C@@H](CCCCN)C(=O)N[C@@H](CC(N)=O)C(=O)N[C@@H](CCCCN)C(=O)N[C@@H](CCC(N)=O)C(=O)N[C@H](C(=O)N[C@@H](CC(C)C)C(=O)N[C@@H](CCC(=O)O)C(=O)N[C@@H](CCC(N)=O)C(=O)N[C@H](C(N)=O)C(C)C)[C@@H](C)CC)[C@@H](C)CC)[C@@H](C)CC)C(C)C)C(C)C) [SEQ ID NO 2]
5% | 0.96 nM | – | Ac-VLSLD[dV]PIKLK([γGlu-C16 diacid])KILLEQEKQKKQREQAETN[Aib]QILAQV-NH2 (SMILES CC[C@H](C)[C@H](NC(=O)[C@H](CCC(N)=O)NC(=O)C(C)(C)NC(=O)[C@H](CC(N)=O)NC(=O)[C@@H](NC(=O)[C@H](CCC(=O)O)NC(=O)[C@H](C)NC(=O)[C@H](CCC(N)=O)NC(=O)[C@H](CCC(=O)O)NC(=O)[C@H](CCCNC(=N)N)NC(=O)[C@H](CCC(N)=O)NC(=O)[C@H](CCCCN)NC(=O)[C@H](CCCCN)NC(=O)[C@H](CCC(N)=O)NC(=O)[C@H](CCCCN)NC(=O)[C@H](CCC(=O)O)NC(=O)[C@H](CCC(N)=O)NC(=O)[C@H](CCC(=O)O)NC(=O)[C@H](CC(C)C)NC(=O)[C@H](CC(C)C)NC(=O)[C@@H](NC(=O)[C@H](CCCCN)NC(=O)[C@H](CCCCNC(=O)CC[C@H](NC(=O)CCCCCCCCCCCCCCC(=O)O)C(=O)O)NC(=O)[C@H](CC(C)C)NC(=O)[C@H](CCCCN)NC(=O)[C@@H](NC(=O)[C@@H]1CCCN1C(=O)[C@H](NC(=O)[C@H](CC(=O)O)NC(=O)[C@H](CC(C)C)NC(=O)[C@H](CO)NC(=O)[C@H](CC(C)C)NC(=O)[C@@H](NC(C)=O)C(C)C)C(C)C)[C@@H](C)CC)[C@@H](C)CC)[C@@H](C)O)C(=O)N[C@@H](CC(C)C)C(=O)N[C@@H](C)C(=O)N[C@@H](CCC(N)=O)C(=O)N[C@H](C(N)=O)C(C)C) [SEQ ID NO 45]
